Source: PMC11402830

Target: T1, human peptidyl arginine deiminase 6 (human), Q6TGC4
T1 chain: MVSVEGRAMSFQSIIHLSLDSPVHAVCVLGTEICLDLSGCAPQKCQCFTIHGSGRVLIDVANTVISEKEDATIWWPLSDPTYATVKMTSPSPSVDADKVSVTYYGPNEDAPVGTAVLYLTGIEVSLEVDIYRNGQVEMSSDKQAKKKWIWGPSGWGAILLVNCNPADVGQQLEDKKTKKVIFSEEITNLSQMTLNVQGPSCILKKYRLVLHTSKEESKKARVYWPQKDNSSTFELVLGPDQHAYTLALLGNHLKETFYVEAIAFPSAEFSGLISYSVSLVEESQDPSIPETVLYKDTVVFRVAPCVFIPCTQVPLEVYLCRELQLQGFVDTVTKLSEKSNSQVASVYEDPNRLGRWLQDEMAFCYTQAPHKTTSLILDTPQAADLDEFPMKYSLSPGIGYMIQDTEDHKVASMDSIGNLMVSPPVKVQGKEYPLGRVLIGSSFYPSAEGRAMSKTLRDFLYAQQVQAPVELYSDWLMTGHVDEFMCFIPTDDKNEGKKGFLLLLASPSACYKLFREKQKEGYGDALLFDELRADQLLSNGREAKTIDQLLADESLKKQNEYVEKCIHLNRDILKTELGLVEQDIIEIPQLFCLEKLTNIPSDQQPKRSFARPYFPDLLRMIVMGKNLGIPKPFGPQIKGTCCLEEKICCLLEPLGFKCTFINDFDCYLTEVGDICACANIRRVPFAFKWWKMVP
Assay: mass photometry; hPADI6 at 4 nM (diluted to about 40 nM in 50 mM Tris-HCl pH 7.5, 200 mM NaCl, 1 mM TCEP, then 2 uL into 18 uL PBS), TwoMP instrument; dimer to monomers
Conditions: remark: other sources report otherwise

B1: human peptidyl arginine deiminase 6, Q6TGC4 1-694 (natural protein)
chain: T1 chain
dimer:monomer ratio at 4 nM (dimer:monomer): 8 | stoichiometry N: 2
